Measurements reported in patent US20250043302A1, “MUTATED HYDROXYPHENYLPYRUVATE DIOXYGENASE POLYPEPTIDE, AND CODING GENE AND USE THEREOF” (BEIJING DABEINONG BIOTECHNOLOGY CO., LTD., priority 2021, published 2025).

Key:
Assay type in all cases: in vivo
[1] = tested on: Arabidopsis thaliana T1 plants; assay: Topramezone tolerance of transgenic Arabidopsis thaliana T1 plants (spray, bleached leaf area grade, damage score); settings: 7 DAT, Table 4; for Classification and statistics of the grade of pesticide damage: Grade 0 / Classification and statistics of the grade of pesticide damage: Grade 1 / Classification and statistics of the grade of pesticide damage: Grade 2 / Classification and statistics of the grade of pesticide damage: Grade 3: number of plants; for Scores: pesticide damage score 0-100
In short: (§1)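 Damage was assessed by bleaching grade (0 none; 1 <50%; 2 >50%; 3 100% of leaf area) one week after spraying. Sprays on 18-day-old T1 and wild-type plants used field-rate multiples: topramezone 25–200, isoxaflutole 35–280, mesotrione 52.5–420 g ai/ha.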

[2] = tested on: Arabidopsis thaliana T1 plants; assay: Isoxaflutole tolerance of transgenic Arabidopsis thaliana T1 plants (spray, bleached leaf area grade, damage score); design: Scores (pesticide damage): scale not given here; settings: spray, Arabidopsis thaliana T1 plants; for Classification and statistics of the grade of pesticide damage: Grade 0 (number of plants) / Classification and statistics of the grade of pesticide damage: Grade 1 (number of plants) / Classification and statistics of the grade of pesticide damage: Grade 2 (number of plants) / Classification and statistics of the grade of pesticide damage: Grade 3 (number of plants): 16 plants
In short: as §1

[3] = tested on: Arabidopsis thaliana T1 plants; assay: Mesotrione tolerance of transgenic Arabidopsis thaliana T1 plants (spray, bleached leaf area grade, damage score); design: Scores: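 damage score 0-100 computed as Σ(N×S)/(T×M)×100 over grades 0-3 with higher meaning more damage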; settings: Arabidopsis thaliana T1 plants; for Grade 0 (classification and statistics of the grade of pesticide damage; number of plants) / Grade 1 (classification and statistics of the grade of pesticide damage; number of plants) / Grade 2 (classification and statistics of the grade of pesticide damage; number of plants) / Grade 3 (classification and statistics of the grade of pesticide damage; number of plants): 16 plants
In short: as §1

[4] = isoxaflutole 35 g ai/ha (0.5x field concentration)
[5] = isoxaflutole 70 g ai/ha (1x field concentration)

Molecule | Classification and statistics of the grade of pesticide damage: Grade 0 ([1]; topramezone 25 g ai/ha (1×)) | Classification and statistics of the grade of pesticide damage: Grade 1 ([1]; topramezone 25 g ai/ha (1×)) | Classification and statistics of the grade of pesticide damage: Grade 2 ([1]; topramezone 25 g ai/ha (1×)) | Classification and statistics of the grade of pesticide damage: Grade 3 ([1]; topramezone 25 g ai/ha (1×)) | Classification and statistics of the grade of pesticide damage: Grade 0 ([1]; topramezone 100 g ai/ha (4×)) | Classification and statistics of the grade of pesticide damage: Grade 1 ([1]; topramezone 100 g ai/ha (4×)) | Classification and statistics of the grade of pesticide damage: Grade 2 ([1]; topramezone 100 g ai/ha (4×)) | Classification and statistics of the grade of pesticide damage: Grade 3 ([1]; topramezone 100 g ai/ha (4×)) | Scores ([1]; topramezone 25 g ai/ha (1×)) | Scores ([1]; topramezone 100 g ai/ha (4×)) | Resistance evaluation ([1]; topramezone 25 g ai/ha (1×)) | Resistance evaluation ([1]; topramezone 100 g ai/ha (4×)) | Resistance evaluation [2, 4] | Scores (pesticide damage) [2, 4] | Classification and statistics of the grade of pesticide damage: Grade 0 (number of plants) [2, 4] | Classification and statistics of the grade of pesticide damage: Grade 1 (number of plants) [2, 4] | Classification and statistics of the grade of pesticide damage: Grade 2 (number of plants) [2, 4] | Classification and statistics of the grade of pesticide damage: Grade 3 (number of plants) [2, 4] | Resistance evaluation [2, 5] | Scores (pesticide damage) [2, 5] | other results
AtHPPDm-F383W-02: nucleotide sequence encoding Arabidopsis thaliana HPPD with F383W; vector DBN11732 (nucleic acid, AtHPPDm-F383W-02 Nucleotide Sequence, vector DBN11732) DNA: ATGGGACATCAGAATGCTGCTGTATCAGAAAATCAAAATCATGATGATGGAGCCGCCTCCTCACCAGGGTTTAAGTTGGTTGGGTTCTCCAAGTTTGTACGGAAGAACCCAAAATCCGACAAGTTCAAGGTTAAACGCTTCCACCACATTGAATTCTGGTGCGGCGACGCCACCAATGTTGCTCGGCGTTTTTCATGGGGTTTAGGCATGAGATTCTCAGCAAAGAGTGACCTGAGCACCGGCAACATGGTTCATGCTAGCTATCTCTTAACATCTGGAGATTTGAGGTTTCTTTTCACGGCGCCGTACTCACCATCACTCTCCGCCGGCGAGATCAAACCCACCACGACTGCAAGCATACCTTCATTTGATCATGGTAGTTGCAGATCCTTCTTCTCGTCGCACGGCCTAGGGGTGCGCGCGGTCGCCATCGAAGTTGAAGATGCAGAATCAGCGTTTAGTATCAGCGTGGCAAATGGAGCTATTCCTTCCTCCCCTCCAATTGTCCTCAATGAGGCTGTAACTATTGCCGAGGTGAAGTTGTATGGAGATGTTGTGCTGAGATATGTTTCTTACAAGGCAGAGGACACTGAGAAATCTGAATTTTTGCCTGGTTTTGAAAGGGTCGAGGATGCTTCAAGTTTTCCTCTTGATTACGGCATACGACGGTTGGATCACGCGGTTGGAAATGTACCAGAACTTGGGCCGGCGCTCACTTATGTGGCTGGTTTCACTGGATTCCATCAATTTGCTGAGTTCACAGCTGATGATGTTGGGACTGCTGAAAGTGGGTTGAACTCTGCAGTCCTCGCCTCTAATGATGAAATGGTGCTCCTCCCGATCAACGAGCCTGTGCATGGCACCAAAAGGAAATCACAAATACAGACATATCTTGAGCACAATGAAGGTGCAGGGCTTCAACATCTTGCACTGATGTCTGAAGACATTTTCCGTACGCTGAGAGAGATGAGGAAGAGAAGTAGTATTGGTGGATTTGACTTCATGCCTTCTCCCCCACCAACTTACTACCAGAACTTGAAGAAGAGGGTTGGTGATGTGCTATCTGATGACCAGATCAAGGAGTGTGAAGAATTGGGCATTCTTGTTGATCGGGACGACCAAGGAACATTACTGCAGATATTTACAAAACCACTTGGTGACCGCCCCACTATTTGGATTGAGATCATACAAAGAGTCGGCTGCATGATGAAGGATGAGGAAGGAAAAGCATATCAATCTGGTGGTTGTGGCGGCTTTGGGAAAGGAAACTTCTCTGAGCTGTTCAAATCCATCGAGGAGTATGAGAAGACCTTGGAGGCCAAGCAGCTCGTGGGTTGA | 0 | 2 | 5 | 9 | 0 | 0 | 2 | 14 | 81 | 96 | non-resistant (non-resistant plants (scores 68-100)) | non-resistant (non-resistant plants (scores 68-100)) | Non-resistant | 77 | 0 | 2 | 7 | 7 | Non-resistant | 100 | Classification and statistics of the grade of pesticide damage: Grade 0 (number of plants) [2, 5]: 0; Classification and statistics of the grade of pesticide damage: Grade 1 (number of plants) [2, 5]: 0; Classification and statistics of the grade of pesticide damage: Grade 2 (number of plants) [2, 5]: 0; Classification and statistics of the grade of pesticide damage: Grade 3 (number of plants) [2, 5]: 16; Resistance evaluation ([3]; mesotrione 52.5 g ai/ha): Non-resistant; Scores ([3]; mesotrione 52.5 g ai/ha): 100; Grade 0 (classification and statistics of the grade of pesticide damage; number of plants) ([3]; mesotrione 52.5 g ai/ha): 0; Grade 1 (classification and statistics of the grade of pesticide damage; number of plants) ([3]; mesotrione 52.5 g ai/ha): 0; Grade 2 (classification and statistics of the grade of pesticide damage; number of plants) ([3]; mesotrione 52.5 g ai/ha): 0; Grade 3 (classification and statistics of the grade of pesticide damage; number of plants) ([3]; mesotrione 52.5 g ai/ha): 16; Resistance evaluation ([3]; mesotrione 105 g ai/ha): Non-resistant; Scores ([3]; mesotrione 105 g ai/ha): 100; Grade 0 (classification and statistics of the grade of pesticide damage; number of plants) ([3]; mesotrione 105 g ai/ha): 0; Grade 1 (classification and statistics of the grade of pesticide damage; number of plants) ([3]; mesotrione 105 g ai/ha): 0; Grade 2 (classification and statistics of the grade of pesticide damage; number of plants) ([3]; mesotrione 105 g ai/ha): 0; Grade 3 (classification and statistics of the grade of pesticide damage; number of plants) ([3]; mesotrione 105 g ai/ha): 16
MsHPPD-02: nucleotide sequence encoding wild-type Medicago sativa HPPD; vector DBN11734 (nucleic acid, MsHPPD-02 Nucleotide Sequence, vector DBN11734) DNA: ATGGCTATTGAAACCGAAACACAAACTCAGACTGGATTTAAACTGGTAGGGTTCAAGAATTTCGTTAGGGCTAATCCCAAGTCTGATCGTTTTAAGGTCAAGAGGTTCCACCACGTGGAGTTCTGGTGCACTGATGCAACCAACACGGCGCGGCGTTTTTCACATGGTCTTGGAATGCCTATTGTTGCAAAATCCGACCTCTCCACGGGGAACCAAACACACGCCTCTTACCTGCTACGGAGTGGTGACTTGAACTTCCTCTTCAGCGCCGCCTACTCACCCTCCATATCGTTGTCTTCACCATCCTCGACCGCAGCAATTCCTACATTTTCTGCGAGCAACTGCTTCTCTTTCTCTGCCAGTCATGGCCTCGCCGTCAGAGCAGTGGCCGTTGAAGTAGAGGATGCTGAACTTGCTTTTACAACTTCAGTGAATAATGGAGCAATACCGAGCAGTCCGCCGGTCATACTTGAGAATCATGTGAAGCTAGCGGAGGTGAGGCTTTATGGGGACGTCGTTTTAAGATATGTCAGCTACAATGATCCAAACCCCAATCAAAATCCAAATTTGTTGTTCCTTCCTGGCTTCGAGCGTGTTAGCGATGAATCTTCAAACTCTTCACTGGATTTTGGAATCAGACGGTTGGATCATGCTGTTGGAAATGTTCCTGAACTCTCGAGCGCTGTGAAATATGTGAAGGACTTCACCGGTTTTCATGAATTTGCTGAGTTTACTGCAGAAGATGTGGGTACATCAGAGAGTGGCTTGAATTCCGTGGTGCTCGCCAACAACGAGGAGACTGTACTCTTACCAATGAATGAGCCAGTCTATGGCACCAAGCGTAAATCTCAAATTGAGACATATTTGGAGCACAATGAAGGAGCTGGACTTCAGCATCTCGCGCTGAAGAGTGAGGACATCTTCCGCACCCTACGGGAGATGAGGAAAAGAAGTGGTGTTGGTGGGTTTGAATTCATGCCATCACCTCCTGTCACCTACTACAGGAACCTGAAGAACAGAGTTGGTGATGTACTTTCGGACGAGCAGATAAAGGAATGTGAAGAGTTGGGGATTTTGGTTGATAGAGATGATCAAGGAACACTCCTGCAGATTTTTACAAAACCAATTGGCGACCGCCCCACTATCTTCATAGAGATCATCCAGAGGGTGGGGTGCATGCTCAAAGACGAGGAAGGGAAGGAGTACCAGAAGGGCGGCTGTGGTGGTTTTGGGAAAGGAAACTTTTCTGAGTTATTCAAATCAATTGAAGAGTATGAGAAGACGCTTGAAACGCGTCGCACTGCTTGA | 0 | 0 | 0 | 16 | 0 | 0 | 0 | 16 | 100 | 100 | non-resistant (non-resistant plants (scores 68-100)) | non-resistant (non-resistant plants (scores 68-100)) | Non-resistant | 100 | 0 | 0 | 0 | 16 | Non-resistant | 100 | Classification and statistics of the grade of pesticide damage: Grade 0 (number of plants) [2, 5]: 0; Classification and statistics of the grade of pesticide damage: Grade 1 (number of plants) [2, 5]: 0; Classification and statistics of the grade of pesticide damage: Grade 2 (number of plants) [2, 5]: 0; Classification and statistics of the grade of pesticide damage: Grade 3 (number of plants) [2, 5]: 16; Resistance evaluation ([3]; mesotrione 52.5 g ai/ha): Non-resistant; Scores ([3]; mesotrione 52.5 g ai/ha): 100; Grade 0 (classification and statistics of the grade of pesticide damage; number of plants) ([3]; mesotrione 52.5 g ai/ha): 0; Grade 1 (classification and statistics of the grade of pesticide damage; number of plants) ([3]; mesotrione 52.5 g ai/ha): 0; Grade 2 (classification and statistics of the grade of pesticide damage; number of plants) ([3]; mesotrione 52.5 g ai/ha): 0; Grade 3 (classification and statistics of the grade of pesticide damage; number of plants) ([3]; mesotrione 52.5 g ai/ha): 16; Resistance evaluation ([3]; mesotrione 105 g ai/ha): Non-resistant; Scores ([3]; mesotrione 105 g ai/ha): 100; Grade 0 (classification and statistics of the grade of pesticide damage; number of plants) ([3]; mesotrione 105 g ai/ha): 0; Grade 1 (classification and statistics of the grade of pesticide damage; number of plants) ([3]; mesotrione 105 g ai/ha): 0; Grade 2 (classification and statistics of the grade of pesticide damage; number of plants) ([3]; mesotrione 105 g ai/ha): 0; Grade 3 (classification and statistics of the grade of pesticide damage; number of plants) ([3]; mesotrione 105 g ai/ha): 16
